B1: Transcriptional regulator ERG (Homo sapiens), P11308-1 (parent)
chain: MIQTVPDPAAHIKEALSVVSEDQSLFECAYGTPHLAKTEMTASSSSDYGQTSKMSPRVPQQDWLSQPPARVTIKMECNPSQVNGSRNSPDECSVAKGGKMVGSPDTVGMNYGSYMEEKHMPPPNMTTNERRVIVPADPTLWSTDHVRQWLEWAVKEYGLPDVNILLFQNIDGKELCKMTKDDFQRLTPSYNADILLSHLHYLRETPLPHLTSDDVDKALQNSPRLMHARNTDLPYEPPRRSAWTGHGHPTPQSKAAQPSPSTVPKTEDQRPQLDPYQILGPTSSRLANPGSGQIQLWQFLLELLSDSSNSSCITWEGTNGEFKMTDPDEVARRWGERKSKPNMNYDKLSRALRYYYDKNIMTKVHGKRYAYKFDFHGIAQALQPHPPESSLYKYPSDLPYMGSYHAHPQKMNFVAPHPPALPVTSSSFFAAPNPYWNSPTGGIYPNTRLPTSHMPSHLGTYY

In the assay the parent is B1. Particulars: with prkdc_human PRKDC.
Regarding Y356A, the “effect of a mutation on the interaction” value is given as “disrupting interaction”.

The values above are taken from IntAct's records for PubMed 21575865.
